The values that follow come from PMC3861647.

The target of this experiment is MBP-RU678 (human). Briefly: ITC; MicroCal ITC200, 25 °C, HBS (10 mM HEPES, 150 mM NaCl, pH 7.4); cell: 50 μM MBP-RU678; syringe: 0.5 mM Srr1-BR or Srr2-BR; single binding mode. (Isothermal titration calorimetry measures the heat released or taken up as one component is titrated into another.)

On to “Srr2-BR (untagged recombinant binding region of Srr2) (domain or fragment)”, for which the equilibrium dissociation constant (Kd) was determined as 12 µM and the stoichiometry N worked out at 1.
In the same order, the values of “Srr1-BR (untagged recombinant binding region of Srr1) (domain or fragment)” are 69 µM and 1.

By Kd is commonly meant the equilibrium constant for the complex coming apart. High values mean lower affinity, low ones higher affinity. What is called stoichiometry N is the number of molecules, sites or subunits per partner or assembly.
